The results in this text go back to paper PMC12529230, “The Lrs14‐Like AbfR1 Homolog From Metallosphaera sedula Is a Nucleoid‐Organizing Protein” (MicrobiologyOpen, 2025).

Data set [1] concerns the molecule itself. Briefly: SEC; Enrich SEC 650 10 x 300 column, 20 mM HEPES, 150 mM NaCl, 1 mM DTT, 5% glycerol, pH 7.5; AbfR1 Ms concentrated to 1.9 mg/mL; MW from a standard curve.
A further data set has as its target T1, AbfR1Ms (Metallosphaera sedula DSM5348, UniProt A4YIR2 1-115).
T1 sequence: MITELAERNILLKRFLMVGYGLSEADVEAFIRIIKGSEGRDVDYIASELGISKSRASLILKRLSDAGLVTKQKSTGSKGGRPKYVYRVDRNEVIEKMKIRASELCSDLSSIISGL
Kind of data set: EMSA; apparent; salmon sperm competitor DNA; EMSA: 20 mM Tris-HCl pH 8.0, 50 mM NaCl, 0.4 mM EDTA, 0.1 mM DTT, 1 mM MgCl2, 12.5% glycerol, 25 ug/mL sonicated salmon sperm DNA, 25 min at 37 C; AFM: same buffer, 15 min at 37 C, then NiCl2/HEPES adsorption on mica. To be noted: protein: recombinant; tags: C-terminal His; chain copies: 2; label: 5'-32P on one strand; blunt.

B1: AbfR1 Ms (recombinant, C-terminal His-tag) (natural protein, Metallosphaera sedula, UniProt A4YIR2 1-115, looked up)
chain: T1 sequence
notes: 115 amino acids, estimated MW 12.7 kDa; codon-optimized synthetic gene fragment (446 bp) cloned NdeI/XhoI into pET24a; No tag cleavage is described; A disulfide bridge between the two chains is proposed (C105, from an AlphaFold model and DTT sensitivity); also called Lrs14-like AbfR1 homolog from Metallosphaera sedula; HhcR; source: E. coli Rosetta (DE3), pET24a; purified (heat treatment 70°C, …)
Consider B1, for which the “stoichiometry N” value in data set [1] is 2.

B2: ORF abfR1Sa (dsDNA)
DNA 1: GTCTTTCTGAATCAGAAATAGACACATTTCTAAGGATACTTGAAAGCAAAGAAGGTAAGGATATTGATGCAATATCTGCAGAACTAAAAATTAGTAAAAG
DNA 2: CTTTTACTAATTTTTAGTTCTGCAGATATTGCATCAATATCCTTACCTTCTTTGCTTTCAAGTATCCTTAGAAATGTGTCTATTTCTGATTCAGAAAGAC
Regarding B2, the Kd in the data set with AbfR1Ms came out at 0.546 µM.
